Read-outs that look alike come from different tables or passages of the source.
Legend:
[1] = biological target: ^FSClpX (TAMRA-labelled single-chain E. coli ^C169SClpX^ΔN pseudohexamer) (E. coli); test: other fluorescence titration
[2] = biological target: ^FSClpXP (^FSClpX with ClpP) (E. coli) (UniProt P0A6G7); test: other fluorescence titration
[3] = biological target: ^FSClpXP (^FSClpX with ClpP) (E. coli) (UniProt P0A6G7); test: stopped-flow fluorescence quenching
[4] = biological target: ^FSClpXP (^FSClpX with ClpP) (E. coli) (UniProt P0A6G7); test: stopped-flow fluorescence quenching; remark: listed apart in the source
[5] = biological target: ^FSClpX (TAMRA-labelled single-chain E. coli ^C169SClpX^ΔN pseudohexamer) (E. coli); test: other fluorescence titration; remark: listed apart in the source
[6] = biological target: ^FSClpXP (^FSClpX with ClpP) (E. coli) (UniProt P0A6G7); test: other fluorescence titration; remark: listed apart in the source

UniProt P0A6G7, sequence (P0A6G7 whole entry, looked up): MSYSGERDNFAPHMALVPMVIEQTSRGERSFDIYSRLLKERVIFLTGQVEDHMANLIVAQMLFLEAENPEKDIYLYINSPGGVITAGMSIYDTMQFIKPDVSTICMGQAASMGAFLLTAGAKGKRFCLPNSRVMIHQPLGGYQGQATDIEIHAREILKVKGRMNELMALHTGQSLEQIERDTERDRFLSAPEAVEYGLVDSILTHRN

Kd [1] | Kd [2] | time constant of dissociation, fast phase [3] | time constant of dissociation, slow phase [3] | time constant of dissociation, fast phase [4] | time constant of dissociation, slow phase [4] | Kd [5] | Kd [6] | Substance
0.059 µM | 0.03 to 0.1 µM | 3 s | 50 s | 2 s | 240 s | 0.11 µM | 0.06 µM | titin-BQ-ssrA (ssrA-tagged I27 domain of human titin labelled with the BHQ-10 quencher) (domain or fragment)
0.09 µM | – | – | – | – | – | 0.55 µM | – | ^UFtitin-BQ-ssrA (titin-BQ-ssrA unfolded by carboxymethylation of otherwise-buried cysteines) (domain or fragment)

From doi:10.1101/2020.05.04.076331
